Target: CD33 naturally expressed on HL60 cells (human, UniProt P20138 18-364)
Experiment: FACS

Sequence of CD33 naturally expressed on HL60 cells (P20138 18-364): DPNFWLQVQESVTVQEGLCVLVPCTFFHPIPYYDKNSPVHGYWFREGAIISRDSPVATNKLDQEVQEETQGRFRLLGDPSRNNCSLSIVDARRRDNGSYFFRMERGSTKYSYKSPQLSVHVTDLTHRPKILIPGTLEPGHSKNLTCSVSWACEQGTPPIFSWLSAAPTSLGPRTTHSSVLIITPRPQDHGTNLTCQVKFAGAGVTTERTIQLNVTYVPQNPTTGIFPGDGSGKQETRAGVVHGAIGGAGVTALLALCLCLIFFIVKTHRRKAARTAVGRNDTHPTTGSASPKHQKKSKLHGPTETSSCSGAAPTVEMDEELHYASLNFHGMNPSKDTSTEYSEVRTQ

EC50: 11.4 nM
B1: CD33/CD16A bispecific antibody QP411543674368 (FC with L234A/L235A mutation for eliminating function) (bispecific antibody)
scFv: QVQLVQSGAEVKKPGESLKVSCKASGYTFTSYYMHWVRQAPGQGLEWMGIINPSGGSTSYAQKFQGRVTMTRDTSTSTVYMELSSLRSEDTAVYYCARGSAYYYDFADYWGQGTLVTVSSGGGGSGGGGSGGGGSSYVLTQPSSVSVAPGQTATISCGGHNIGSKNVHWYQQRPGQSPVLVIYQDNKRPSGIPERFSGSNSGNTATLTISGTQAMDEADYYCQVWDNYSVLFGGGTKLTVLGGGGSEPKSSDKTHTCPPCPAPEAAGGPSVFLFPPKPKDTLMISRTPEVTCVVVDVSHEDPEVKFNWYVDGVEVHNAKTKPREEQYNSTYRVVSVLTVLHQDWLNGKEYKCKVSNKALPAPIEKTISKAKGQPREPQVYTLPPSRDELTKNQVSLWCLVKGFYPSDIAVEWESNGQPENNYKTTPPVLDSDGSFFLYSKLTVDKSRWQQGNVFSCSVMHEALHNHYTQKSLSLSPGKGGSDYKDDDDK
heavy: QVQLVQSGAEVKKPGESVKVSCKASGYTFTNYGMNWVKQAPGQGLEWMGWINTYTGEPTYADKFQGRVTMTTDTSTSTAYMEIRNLGGDDTAVYYCARWSWSDGYYVYFDYWGQGTSVTVSSASTKGPSVFPLAPSSKSTSGGTAALGCLVKDYFPEPVTVSWNSGALTSGVHTFPAVLQSSGLYSLSSVVTVPSSSLGTQTYICNVNHKPSNTKVDKKVEPKSCDKTHTCPPCPAPEAAGGPSVFLFPPKPKDTLMISRTPEVTCVVVDVSHEDPEVKFNWYVDGVEVHNAKTKPREEQYNSTYRVVSVLTVLHQDWLNGKEYKCKVSNKALPAPIEKTISKAKGQPREPQVYTLPPSREEMTKNQVSLSCAVKGFYPSDIAVEWESNGQPENNYKTTPPVLDSDGSFFLVSKLTVDKSRWQQGNVFSCSVMHEALHNRYTQKSLSLSPGKGGSHHHHHH
light: DIVMTQSPDSLTVSLGERTTINCKSSQSVLDSSTNKNSLAWYQQKPGQPPKLLLSWASTRESGIPDRFSGSGSGTDFTLTIDSPQPEDSATYYCQQSAHFPITFGQGTRLEIKRTVAAPSVFIFPPSDEQLKSGTASVVCLLNNFYPREAKVQWKVDNALQSGNSQESVTEQDSKDSTYSLSSTLTLSKADYEKHKVYACEVTHQGLSSPVTKSFNRGEC
